According to publication PMC3507856, “Two glutamic acid residues in the DNA-binding domain are engaged in the release of STAT1 dimers from DNA” (BMC Cell Biology, 2012):
Values joined by “and” are separate entries in the source; they are usually repeats but may differ in a detail not shown here. Equal entries are not always repeated.

T1: endogenous (native) STAT1 of HeLa cells (human (endogenous in HeLa)), P42224
T1 chain: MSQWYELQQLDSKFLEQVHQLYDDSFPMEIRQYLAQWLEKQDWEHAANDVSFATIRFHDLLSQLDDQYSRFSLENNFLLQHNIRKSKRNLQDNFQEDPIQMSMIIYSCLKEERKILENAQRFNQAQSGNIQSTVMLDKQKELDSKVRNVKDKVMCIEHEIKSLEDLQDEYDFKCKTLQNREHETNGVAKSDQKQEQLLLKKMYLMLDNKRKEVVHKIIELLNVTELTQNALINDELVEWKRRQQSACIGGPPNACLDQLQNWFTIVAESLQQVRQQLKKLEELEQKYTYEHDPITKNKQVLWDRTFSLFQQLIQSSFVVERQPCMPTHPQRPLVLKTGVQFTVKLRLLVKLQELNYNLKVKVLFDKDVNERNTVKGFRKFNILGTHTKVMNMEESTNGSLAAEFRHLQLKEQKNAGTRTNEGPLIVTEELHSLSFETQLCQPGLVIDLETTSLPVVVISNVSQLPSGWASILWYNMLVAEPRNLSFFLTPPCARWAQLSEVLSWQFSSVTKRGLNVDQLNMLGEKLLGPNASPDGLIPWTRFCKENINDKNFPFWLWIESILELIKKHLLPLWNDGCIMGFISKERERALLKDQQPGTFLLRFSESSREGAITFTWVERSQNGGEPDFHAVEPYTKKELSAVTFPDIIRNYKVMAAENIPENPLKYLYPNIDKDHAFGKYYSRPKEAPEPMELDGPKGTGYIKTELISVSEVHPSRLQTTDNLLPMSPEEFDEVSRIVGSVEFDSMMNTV


Tests used:
[1] = target: T1, endogenous (native) STAT1 of HeLa cells …; experiment: native gel or EMSA; whole cell lysates of HeLa cells (IFNγ 45 min, then staurosporine for the durations indicated) incubated in vitro with 32P-labelled M67 DNA (single high-affinity GAS site); STAT1 dimers seen as DNA-bound complexes on a 4% acrylamide gel at 4°C; homo- and heterodimers told apart by mobility; details: remark: other sources report otherwise
[2] = target: the molecule itself; experiment: as above
[3] = target: the molecule itself; experiment: native gel or EMSA; extracts of IFNγ-stimulated U3A cells incubated in vitro with 32P-labelled DNA containing a tandem GAS site; unchallenged or challenged for 30 min with a 750-fold molar excess of a single unlabelled GAS site (M67); dimeric and tetrameric STAT1 seen as DNA-bound complexes

Binder	stoichiometry N [2]	stoichiometry N [3]	further results
endogenous (native) STAT1 of HeLa cells, P42224 1-750 (natural protein, here or on the partner: tyrosine-phosphorylated (phospho-Tyr701) after stimulation of cells with IFNγ; tyrosine-phosphorylated (phospho-Tyr701) after stimulation of cells with IFNγ) MSQWYELQQLDSKFLEQVHQLYDDSFPMEIRQYLAQWLEKQDWEHAANDVSFATIRFHDLLSQLDDQYSRFSLENNFLLQHNIRKSKRNLQDNFQEDPIQMSMIIYSCLKEERKILENAQRFNQAQSGNIQSTVMLDKQKELDSKVRNVKDKVMCIEHEIKSLEDLQDEYDFKCKTLQNREHETNGVAKSDQKQEQLLLKKMYLMLDNKRKEVVHKIIELLNVTELTQNALINDELVEWKRRQQSACIGGPPNACLDQLQNWFTIVAESLQQVRQQLKKLEELEQKYTYEHDPITKNKQVLWDRTFSLFQQLIQSSFVVERQPCMPTHPQRPLVLKTGVQFTVKLRLLVKLQELNYNLKVKVLFDKDVNERNTVKGFRKFNILGTHTKVMNMEESTNGSLAAEFRHLQLKEQKNAGTRTNEGPLIVTEELHSLSFETQLCQPGLVIDLETTSLPVVVISNVSQLPSGWASILWYNMLVAEPRNLSFFLTPPCARWAQLSEVLSWQFSSVTKRGLNVDQLNMLGEKLLGPNASPDGLIPWTRFCKENINDKNFPFWLWIESILELIKKHLLPLWNDGCIMGFISKERERALLKDQQPGTFLLRFSESSREGAITFTWVERSQNGGEPDFHAVEPYTKKELSAVTFPDIIRNYKVMAAENIPENPLKYLYPNIDKDHAFGKYYSRPKEAPEPMELDGPKGTGYIKTELISVSEVHPSRLQTTDNLLPMSPEEFDEVSRIVGSVEFDSMMNTV	–	–	stoichiometry N [1]: 2
STAT1-WT-GFP (wild-type human STAT1 fused to green fluorescent protein) (natural protein, UniProt P42224 1-746, looked up, tyrosine-phosphorylated (phospho-Tyr701) after stimulation of cells with IFNγ, also called STAT1-GFP; GFP-tagged wild-type STAT1; source: HeLa cells, transfected (pEGFP-N1-STAT1), IFNγ-stimulated, in whole cell lysate; not shown: GFP, C-terminal, kept) MSQWYELQQLDSKFLEQVHQLYDDSFPMEIRQYLAQWLEKQDWEHAANDVSFATIRFHDLLSQLDDQYSRFSLENNFLLQHNIRKSKRNLQDNFQEDPIQMSMIIYSCLKEERKILENAQRFNQAQSGNIQSTVMLDKQKELDSKVRNVKDKVMCIEHEIKSLEDLQDEYDFKCKTLQNREHETNGVAKSDQKQEQLLLKKMYLMLDNKRKEVVHKIIELLNVTELTQNALINDELVEWKRRQQSACIGGPPNACLDQLQNWFTIVAESLQQVRQQLKKLEELEQKYTYEHDPITKNKQVLWDRTFSLFQQLIQSSFVVERQPCMPTHPQRPLVLKTGVQFTVKLRLLVKLQELNYNLKVKVLFDKDVNERNTVKGFRKFNILGTHTKVMNMEESTNGSLAAEFRHLQLKEQKNAGTRTNEGPLIVTEELHSLSFETQLCQPGLVIDLETTSLPVVVISNVSQLPSGWASILWYNMLVAEPRNLSFFLTPPCARWAQLSEVLSWQFSSVTKRGLNVDQLNMLGEKLLGPNASPDGLIPWTRFCKENINDKNFPFWLWIESILELIKKHLLPLWNDGCIMGFISKERERALLKDQQPGTFLLRFSESSREGAITFTWVERSQNGGEPDFHAVEPYTKKELSAVTFPDIIRNYKVMAAENIPENPLKYLYPNIDKDHAFGKYYSRPKEAPEPMELDGPKGTGYIKTELISVSEVHPSRLQTTDNLLPMSPEEFDEVSRIVGSVEFDSM	2	–	–
STAT1-E411A-GFP (natural protein, human, UniProt P42224 1-746, looked up, tyrosine-phosphorylated (phospho-Tyr701) after stimulation of cells with IFNγ, STAT1, human; also called E411 mutant; source: HeLa cells, transfected (pEGFP-N1-STAT1 with point mutation), IFNγ-stimulated, in whole cell lysate; not shown: GFP, C-terminal, kept) MSQWYELQQLDSKFLEQVHQLYDDSFPMEIRQYLAQWLEKQDWEHAANDVSFATIRFHDLLSQLDDQYSRFSLENNFLLQHNIRKSKRNLQDNFQEDPIQMSMIIYSCLKEERKILENAQRFNQAQSGNIQSTVMLDKQKELDSKVRNVKDKVMCIEHEIKSLEDLQDEYDFKCKTLQNREHETNGVAKSDQKQEQLLLKKMYLMLDNKRKEVVHKIIELLNVTELTQNALINDELVEWKRRQQSACIGGPPNACLDQLQNWFTIVAESLQQVRQQLKKLEELEQKYTYEHDPITKNKQVLWDRTFSLFQQLIQSSFVVERQPCMPTHPQRPLVLKTGVQFTVKLRLLVKLQELNYNLKVKVLFDKDVNERNTVKGFRKFNILGTHTKVMNMEESTNGSLAAEFRHLQLKAQKNAGTRTNEGPLIVTEELHSLSFETQLCQPGLVIDLETTSLPVVVISNVSQLPSGWASILWYNMLVAEPRNLSFFLTPPCARWAQLSEVLSWQFSSVTKRGLNVDQLNMLGEKLLGPNASPDGLIPWTRFCKENINDKNFPFWLWIESILELIKKHLLPLWNDGCIMGFISKERERALLKDQQPGTFLLRFSESSREGAITFTWVERSQNGGEPDFHAVEPYTKKELSAVTFPDIIRNYKVMAAENIPENPLKYLYPNIDKDHAFGKYYSRPKEAPEPMELDGPKGTGYIKTELISVSEVHPSRLQTTDNLLPMSPEEFDEVSRIVGSVEFDSM	2	–	–
wild-type STAT1 expressed in STAT1-negative U3A cells (natural protein, human, UniProt P42224 1-746, looked up, tyrosine-phosphorylated after stimulation of cells with IFNγ, STAT1, human; also called STAT1-WT; source: U3A cells, transfected, IFNγ-stimulated, in cell extract) MSQWYELQQLDSKFLEQVHQLYDDSFPMEIRQYLAQWLEKQDWEHAANDVSFATIRFHDLLSQLDDQYSRFSLENNFLLQHNIRKSKRNLQDNFQEDPIQMSMIIYSCLKEERKILENAQRFNQAQSGNIQSTVMLDKQKELDSKVRNVKDKVMCIEHEIKSLEDLQDEYDFKCKTLQNREHETNGVAKSDQKQEQLLLKKMYLMLDNKRKEVVHKIIELLNVTELTQNALINDELVEWKRRQQSACIGGPPNACLDQLQNWFTIVAESLQQVRQQLKKLEELEQKYTYEHDPITKNKQVLWDRTFSLFQQLIQSSFVVERQPCMPTHPQRPLVLKTGVQFTVKLRLLVKLQELNYNLKVKVLFDKDVNERNTVKGFRKFNILGTHTKVMNMEESTNGSLAAEFRHLQLKEQKNAGTRTNEGPLIVTEELHSLSFETQLCQPGLVIDLETTSLPVVVISNVSQLPSGWASILWYNMLVAEPRNLSFFLTPPCARWAQLSEVLSWQFSSVTKRGLNVDQLNMLGEKLLGPNASPDGLIPWTRFCKENINDKNFPFWLWIESILELIKKHLLPLWNDGCIMGFISKERERALLKDQQPGTFLLRFSESSREGAITFTWVERSQNGGEPDFHAVEPYTKKELSAVTFPDIIRNYKVMAAENIPENPLKYLYPNIDKDHAFGKYYSRPKEAPEPMELDGPKGTGYIKTELISVSEVHPSRLQTTDNLLPMSPEEFDEVSRIVGSVEFDSM	–	2 and 4	–
STAT1-E411A expressed in STAT1-negative U3A cells (natural protein, human, UniProt P42224 1-746, looked up, tyrosine-phosphorylated after stimulation of cells with IFNγ, STAT1, human; glutamic acid 411 changed to alanine; also called E411A mutant; mutant STAT1; source: U3A cells, transfected, IFNγ-stimulated, in cell extract) MSQWYELQQLDSKFLEQVHQLYDDSFPMEIRQYLAQWLEKQDWEHAANDVSFATIRFHDLLSQLDDQYSRFSLENNFLLQHNIRKSKRNLQDNFQEDPIQMSMIIYSCLKEERKILENAQRFNQAQSGNIQSTVMLDKQKELDSKVRNVKDKVMCIEHEIKSLEDLQDEYDFKCKTLQNREHETNGVAKSDQKQEQLLLKKMYLMLDNKRKEVVHKIIELLNVTELTQNALINDELVEWKRRQQSACIGGPPNACLDQLQNWFTIVAESLQQVRQQLKKLEELEQKYTYEHDPITKNKQVLWDRTFSLFQQLIQSSFVVERQPCMPTHPQRPLVLKTGVQFTVKLRLLVKLQELNYNLKVKVLFDKDVNERNTVKGFRKFNILGTHTKVMNMEESTNGSLAAEFRHLQLKAQKNAGTRTNEGPLIVTEELHSLSFETQLCQPGLVIDLETTSLPVVVISNVSQLPSGWASILWYNMLVAEPRNLSFFLTPPCARWAQLSEVLSWQFSSVTKRGLNVDQLNMLGEKLLGPNASPDGLIPWTRFCKENINDKNFPFWLWIESILELIKKHLLPLWNDGCIMGFISKERERALLKDQQPGTFLLRFSESSREGAITFTWVERSQNGGEPDFHAVEPYTKKELSAVTFPDIIRNYKVMAAENIPENPLKYLYPNIDKDHAFGKYYSRPKEAPEPMELDGPKGTGYIKTELISVSEVHPSRLQTTDNLLPMSPEEFDEVSRIVGSVEFDSM	–	2 and 4	–
